{
  "source": "paper PMC2887959",
  "binders": {"B1": {"name": "U5A/U5B (dsDNA)", "DNA 1": "GTGTGGAAAATCTCTAGCAGT", "DNA 2": "ACTGCTAGAGATTTTCCACAC"}},
  "experiment_in_all_cases": "fluorescence anisotropy",
  "key": {"[1]": {"target": "T1, IN catalytic core CC (IN50-213) (HIV-1, UniProt P04585 1197-1360)"}, "IN deltaC (IN1-213) [2]": {"target": "T2, IN deltaC (IN1-213) (HIV-1, UniProt P04585 1148-1360)"}, "[3]": {"target": "T1, IN catalytic core CC (IN50-213)", "remark": "listed apart in the source"}, "IN deltaC (IN1-213) [4]": {"target": "T2, IN deltaC (IN1-213)", "remark": "listed apart in the source"}},
  "note": "Like-named read-outs stand apart in the source and are kept apart here.",
  "data": [
    {"binder": "B1", "values": [
      {"measurement": "Kd", "setting": "[1]", "value": "53 ± 13", "unit": "nM"},
      {"measurement": "Kd", "setting": "IN deltaC (IN1-213) [2]", "value": "60 ± 4", "unit": "nM"},
      {"measurement": "Kd", "setting": "[3]", "value": "61 ± 10", "unit": "nM"},
      {"measurement": "Kd", "setting": "IN deltaC (IN1-213) [4]", "value": "64 ± 8", "unit": "nM"}
    ]}
  ]
}
